Data on 4 substances can be found in patent publication US5689048.

The target of assay [1] is Mj-AMP1 (Mirabilis jalapa--Antimicrobial Protein 1) (Mirabilis jalapa).
For assay [2], the target named is Mj-AMP2 (Mirabilis jalapa--Antimicrobial Protein 2) (Mirabilis jalapa).

For Chymotrypsin (enzyme), the Relative antifungal activity (shown as % of control activity) after Chymotrypsin digestion (% of control activity) in assay [1] came to 12; in assay [2], 50.
With Pronase E (enzyme), the Relative antifungal activity (shown as % of control activity) after Pronase E digestion (% of control activity) in assay [1] is 50; in assay [2], 25.
With “Proteinase K (from UniProt P06873) (enzyme)”, the Relative antifungal activity (shown as % of control activity) after Proteinase K digestion (% of control activity) in assay [1] and in assay [2] was 100 each time.
As for Trypsin (enzyme), the Relative antifungal activity (shown as % of control activity) after Trypsin digestion (% of control activity) in assay [1] turned out to be 75; in assay [2] it was 100.
